According to patent US11278600B2, “Human alpha-galactosidase variants” (Codexis, Inc., priority 2014, dated 2022):
Positions count from the first letter of the chain named. In names and notes the source's numbering stands.

B1: Variant 218: GLA variant; M322I/E367N/R373K relative to SEQ ID NO: 10 (protein)
chain: LDNGLARTPTMGWLHWERFMCNLDCQEEPDSCISEKLFMEMAELMVSEGWKDAGYEYLCIDDCWMAPQRDSEGRLQADPQRFPHGIRQLANYVHSKGLKLGIYADVGNKTCAGFPGSFGYYDIDAQTFADWGVDLLKFDGCYCDSLENLADGYKHMSLALNRTGRSIVYSCEWPLYMWPFQKPNYTEIRQYCNHWRNFADIDDSWASIKSILDWTSFNQERIVDVAGPGGWNDPDMLVIGNFGLSWNQQVTQMALWAIMAAPLFMSNDLRHISPQAKALLQDKDVIAINQDPLGKQGYQLRQGDNFEVWERPLSGLAWAVAIINRQEIGGPRSYTIAVASLGKGVACNPACFITQLLPVKRKLGFYNWTSRLKSHINPTGTVLLQLENTMQMSLKDLL
modifications: Synthetic Polypeptide sequence of Variant No. 218
B2: Variant 402: GLA variant; polypeptide sequence of SEQ ID NO: 42 (protein)
chain: B1 chain with L44R, S166P, F217R, N247D, Q302K, L316D, A337P, K362Q
modifications: Synthetic Polypeptide sequence of Variant No. 402

Key:
[1] = Thermostability of purified GLA variants (Sypro Orange melting); format: physicochemical; conditions: purified enzyme 20 μg/ml in 1×PBS, 30 to 75° C. at 0.5° C./min
Method: (§1) GLA variants were purified from mammalian culture supernatant essentially as known in the art (See, Yasuda et al., Prot. Exp. Pur., 37, 499-506 [2004]). Concanavalin A resin (Sigma Aldrich) was equilibrated with 0.1 M sodium acetate, 0.1 M NaCl, 1 mM MgCl2, CaCl2, and MnCl2 pH 6.0 (Con A binding buffer). Supernatant was diluted 1:1 with binding buffer and loaded onto the column. The column was washed with 15 volumes of Concanavalin A binding buffer, and samples were eluted by the addition of Concanavalin A binding buffer including 0.9 M methyl-α-D-mannopyranoside and 0.9 M methyl-α-D-glucopyranoside. Eluted protein was concentrated and buffer exchanged three times using a Centricon® Plus-20 filtration unit with a 10 kDa molecular weight cut off (Millipore) into ThioGal binding buffer (25 mM citrate-phosphate, 0.1 M NaCl, pH 4.8). Buffer exchanged samples were loaded onto a Immobilized-D-galactose resin (Pierce) equilibrated with ThioGal binding buffer. The resin was washed with six volumes of ThioGal binding buffer and eluted with 25 mM citrate phosphate, 0.1 M NaCl, 0.1 M D-galactose, pH 5.5. […]
The thermostability of WT GLA (SEQ ID NO:5) and SEQ ID NO:42 were determined to assess their overall stability. […] The plates were heated from 30 to 75° C. at 0.5° C./min on a RT-PCR machine and Sypro Orange fluorescence was monitored. […]

[2] = Serum pharmacokinetics of purified GLA variants in rats; format: in vivo, Sprague-Dawley rats; conditions: rat, intravenous 1 mg/ml at 1 ml/kg; four hours post-administration
Method: Purified GLA variants produced as described in Example 4 were assessed for stability in the serum of live rats. WT GLA (SEQ ID NO:5) or SEQ ID NO:42 at 1 mg/ml were administered intravenously at 1 ml/kg to three naïve jugular vein cannulated Sprague-Dawley rats (7-8 weeks old) each. Prior to administration and at 5, 15, 30, 60, 120, and 240 minutes post-administration, […] was collected from each rat in an EDTA tube and centrifuged at 4° C. and 6000 rpm to generate >80 μL of serum per sample. Samples were frozen and stored on dry ice prior to analysis. For analysis, serum (10 μL) was added to 40 μL of 5 mM MUGal in McIlvaine buffer pH 4.4, and incubated at 37° C. for 1 h. Samples were quenched with 50 μL of 1 M sodium carbonate, diluted 1:100 in 1 M sodium carbonate and analyzed by fluorescence spectroscopy (Ex. 355, Em. 448). Four hours post-administration SEQ ID NO:42 retained 15.3% of maximal activity, while WT GLA retained only 0.66% (See, FIG. 9).

[3] = Thermostability of GLA variants expressed in HEK293T cells; format: biochemical; conditions: HEK293T supernatants; 30-54° C. for 1 h; residual MUGal activity
[4] = Activity on alternative substrate NBD-GB3 (TLC); format: biochemical; conditions: HEK293T culture supernatant, pH 4.8, 37° C., 1 h
Method: To confirm that improved activity in MUGal hydrolysis corresponded to more native substrates, mammalian cell-expressed GLA variants were assayed using N-Dodecanoyl-NBD-ceramide trihexoside (NBD-GB3) as substrate. HEK293T culture supernatant (10 μL), 100 mM sodium citrate pH 4.8 (80 μL), and NBD-GB3 (0.1 mg/ml) in 10% ethanol (10 μL) were added to microcentrifuge tubes. Samples were inverted to mix, and incubated at 37° C. for 1 h. The reaction was quenched via addition of 50 μL, methanol, diluted with 100 μL, chloroform, vortexed and the organic layer was isolated for analysis. The organic phase (10 μL) was spotted onto a silica plate and analyzed by thin layer chromatography (chloroform:methanol:water, 100:42:6), detecting the starting material and product using a 365 nm UV lamp.

[5] = pH stability of purified GLA variants over time; format: biochemical; conditions: purified enzyme; McIlvaine buffer pH 4.1 or 7.5, 0-24 h at 37° C.
Method: as §1, with “buffer.” for “buffer. The resin was washed with six volumes of ThioGal binding buffer and eluted with 25 mM citrate phosphate, 0.1 M NaCl, 0.1 M D-galactose, pH 5.5.”
To confirm that purified GLA variants show the desired pH stability observed after expression in yeast, WT GLA (SEQ ID NO:5) and SEQ ID NO:42 were incubated in acidic or basic buffers and analyzed for residual activity. […] Samples were quenched with 100 μL, of 1 M sodium carbonate, diluted 1:4 in 1 M sodium carbonate and analyzed by fluorescence spectroscopy (Ex. 355, Em. 448).

Molecule	melting temperature [1] [°C]	GLA activity retained in serum, % of maximal activity [2] [%]	increase of Tm of the enzyme [3] [°C]	conversion of NBD-GB3 [4]	stability (residual activity) under acid and basic challenge compared to WT GLA [5]
WT GLA: wild-type mature human alpha galactosidase A (GLA), polypeptide sequence of SEQ ID NO: 5 [reference compound]	37	0.66			
B1			4	Significant conversion	
B2	55	15.3			considerably more stable
